Results taken from the supplement of paper PMC7877785.
± gives the uncertainty stated by the source.

Test: self-splicing fitness, log relative to wild type (ln ratio); higher = more splicing; Tetrahymena group I intron in knt gene, E. coli kanamycin selection, DiMSum; sequences stand for … in CUCUCU…GGAGGGAAAAGUUAUCAGGCAUGCACCUGGUAGCUAGUCUUUAAACCAAUAGAUUGCAUCGGUUUAAAAGGCAAGACCGUCAAAUUGCGGGAAAGGGGUCAACAGCCGUUCAGUACCAAGUCUCAGGGGAAACUUUGAGAUGGCCUUGCAAAGGGUAUGGUAAUAAGCUGACGGACAUGGUCCUAACCACGCAGCCAAGUCCUAAGUCAACAGAUCUUCUGUUGAUAUGGAUGCAGUUCACAGACUAAAUGUCGGUCGGGGAAGAUGUAUUCUUCUCAUAAGAUAUAGUCGGACCUCUCCUUAAUGGGAGCUAGCGGAUGAAGUGAUGCAACACUGGAGCCGCUGGGAACUAAUUUGUAUGCGAAAGUAUAUUGAUUAGUUUUGGAGUACUCGUGGUCG
Method in brief: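 The eight P1ex-region nucleotides of an intron in the knt kanamycin-resistance gene on pET-22b(+) were all randomised and the library put into E. coli BL21(DE3). Six replicate transformations were grown overnight at 37°C or 30°C on LB agar with or without 25 μg/mL kanamycin, together with 100 μg/mL carbenicillin, 50 μM IPTG and 0.2% rhamnose. Colonies were pooled and amplicon-sequenced on an Illumina HiSeq 2500. Fitness from DiMSum is the error-weighted combination of wild-type-normalised replicate fold changes, kanamycin over none.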

UGCCAGCAAUAUUACGCUUC
self-splicing fitness (ln) (30 °C): -3.19 ± 0.23
self-splicing fitness (ln) (37 °C): -1.86 ± 0.22

CCACAGCAAUAUUACGUAGU
self-splicing fitness (ln) (30 °C): -3.22 ± 0.14
self-splicing fitness (ln) (37 °C): -2.94 ± 0.19

AUUAAGCAAUAUUACGUAAG
self-splicing fitness (ln) (30 °C): -0.562 ± 0.12
self-splicing fitness (ln) (37 °C): -0.864 ± 0.19

UGUGAGCAAUAUUACGUACC
self-splicing fitness (ln) (30 °C): -1.1 ± 0.23
self-splicing fitness (ln) (37 °C): -0.269 ± 0.28

CUGCAGCAAUAUUACGCUCA
self-splicing fitness (ln) (37 °C): -2.21 ± 0.35

UUCUAGCAAUAUUACGAGCG
self-splicing fitness (ln) (30 °C): -0.769 ± 0.066
self-splicing fitness (ln) (37 °C): -0.94 ± 0.072

CCCGAGCAAUAUUACGCCGU
self-splicing fitness (ln) (30 °C): -3.61 ± 0.32
self-splicing fitness (ln) (37 °C): -2.69 ± 0.32

CGAAAGCAAUAUUACGUGCG
self-splicing fitness (ln) (30 °C): -1.22 ± 0.076
self-splicing fitness (ln) (37 °C): -0.524 ± 0.097

AAUUAGCAAUAUUACGUCUC
self-splicing fitness (ln) (30 °C): -0.875 ± 0.12
self-splicing fitness (ln) (37 °C): -0.478 ± 0.16

UAUAAGCAAUAUUACGCUAG
self-splicing fitness (ln) (30 °C): -2 ± 0.18
self-splicing fitness (ln) (37 °C): -0.688 ± 0.23

CAGCAGCAAUAUUACGUGUU
self-splicing fitness (ln) (30 °C): -4.61 ± 0.22
self-splicing fitness (ln) (37 °C): -2.5 ± 0.13

GCGCAGCAAUAUUACGAACU
self-splicing fitness (ln) (30 °C): 0.116 ± 0.11
self-splicing fitness (ln) (37 °C): 0.476 ± 0.13

CUGAAGCAAUAUUACGUGCU
self-splicing fitness (ln) (30 °C): -4.66 ± 0.34
self-splicing fitness (ln) (37 °C): -2.95 ± 0.34

GGAUAGCAAUAUUACGGUGU
self-splicing fitness (ln) (30 °C): -1.3 ± 0.059
self-splicing fitness (ln) (37 °C): -1.05 ± 0.083

CGGUAGCAAUAUUACGUAAA
self-splicing fitness (ln) (30 °C): -1.14 ± 0.08
self-splicing fitness (ln) (37 °C): -2.33 ± 0.17

GACAAGCAAUAUUACGCCCA
self-splicing fitness (ln) (30 °C): -0.451 ± 0.086
self-splicing fitness (ln) (37 °C): -0.609 ± 0.13

CCUCAGCAAUAUUACGCGAU
self-splicing fitness (ln) (30 °C): -4.95 ± 0.38
self-splicing fitness (ln) (37 °C): -2.63 ± 0.22

AUGAAGCAAUAUUACGCUAA
self-splicing fitness (ln) (30 °C): -1.32 ± 0.1
self-splicing fitness (ln) (37 °C): -0.00859 ± 0.13

CGAAAGCAAUAUUACGUGCA
self-splicing fitness (ln) (30 °C): -2.12 ± 0.12
self-splicing fitness (ln) (37 °C): -1.13 ± 0.12

UGGAAGCAAUAUUACGCGGC
self-splicing fitness (ln) (30 °C): -2.11 ± 0.26
self-splicing fitness (ln) (37 °C): -1.08 ± 0.26

ACGCAGCAAUAUUACGAUGG
self-splicing fitness (ln) (30 °C): -1.82 ± 0.097
self-splicing fitness (ln) (37 °C): -1.59 ± 0.13

AAUCAGCAAUAUUACGCUUA
self-splicing fitness (ln) (30 °C): -0.484 ± 0.072
self-splicing fitness (ln) (37 °C): 0.347 ± 0.098

ACUUAGCAAUAUUACGACGC
self-splicing fitness (ln) (30 °C): -0.152 ± 0.066
self-splicing fitness (ln) (37 °C): -0.0939 ± 0.072

ACAAAGCAAUAUUACGGGCC
self-splicing fitness (ln) (30 °C): -3.9 ± 0.3
self-splicing fitness (ln) (37 °C): -2.32 ± 0.24

AUAGAGCAAUAUUACGUUUA
self-splicing fitness (ln) (30 °C): -0.804 ± 0.13
self-splicing fitness (ln) (37 °C): -0.629 ± 0.14

AACUAGCAAUAUUACGGUUA
self-splicing fitness (ln) (30 °C): -0.722 ± 0.084
self-splicing fitness (ln) (37 °C): -0.482 ± 0.083

UACCAGCAAUAUUACGCGGU
self-splicing fitness (ln) (30 °C): -4.05 ± 0.17
self-splicing fitness (ln) (37 °C): -3.47 ± 0.2

UUCCAGCAAUAUUACGCUAA
self-splicing fitness (ln) (30 °C): -0.0987 ± 0.083
self-splicing fitness (ln) (37 °C): -0.376 ± 0.084

GGUUAGCAAUAUUACGUCAU
self-splicing fitness (ln) (30 °C): -1.03 ± 0.21
self-splicing fitness (ln) (37 °C): 0.277 ± 0.21

AGAUAGCAAUAUUACGGUAA
self-splicing fitness (ln) (30 °C): -1.79 ± 0.2
self-splicing fitness (ln) (37 °C): -1.34 ± 0.19

AUUCAGCAAUAUUACGUUUA
self-splicing fitness (ln) (30 °C): -1.18 ± 0.12
self-splicing fitness (ln) (37 °C): -0.911 ± 0.11

UGCCAGCAAUAUUACGGUAG
self-splicing fitness (ln) (30 °C): -1.89 ± 0.12
self-splicing fitness (ln) (37 °C): -0.428 ± 0.11

AUCGAGCAAUAUUACGACUA
self-splicing fitness (ln) (30 °C): -1.54 ± 0.24
self-splicing fitness (ln) (37 °C): -0.741 ± 0.15

ACUAAGCAAUAUUACGACAG
self-splicing fitness (ln) (30 °C): -0.663 ± 0.085
self-splicing fitness (ln) (37 °C): -0.322 ± 0.11

CGUAAGCAAUAUUACGGCCU
self-splicing fitness (ln) (30 °C): -3.28 ± 0.26
self-splicing fitness (ln) (37 °C): -1.54 ± 0.22

CACCAGCAAUAUUACGUAAU
self-splicing fitness (ln) (30 °C): -2.63 ± 0.078
self-splicing fitness (ln) (37 °C): -1.89 ± 0.097

UGAUAGCAAUAUUACGUUUC
self-splicing fitness (ln) (30 °C): -2.72 ± 0.22
self-splicing fitness (ln) (37 °C): -2.29 ± 0.41

GGGAAGCAAUAUUACGGACC
self-splicing fitness (ln) (30 °C): -3.81 ± 0.4
self-splicing fitness (ln) (37 °C): -2.35 ± 0.46

GCGAAGCAAUAUUACGUAUC
self-splicing fitness (ln) (30 °C): -3.34 ± 0.3
self-splicing fitness (ln) (37 °C): -0.83 ± 0.14

AAUGAGCAAUAUUACGUCCG
self-splicing fitness (ln) (30 °C): -4.29 ± 0.39
self-splicing fitness (ln) (37 °C): -3.13 ± 0.29

ACCCAGCAAUAUUACGUAAU
self-splicing fitness (ln) (30 °C): -0.676 ± 0.035
self-splicing fitness (ln) (37 °C): 0.426 ± 0.061

CAGUAGCAAUAUUACGCGUA
self-splicing fitness (ln) (30 °C): -2.89 ± 0.27
self-splicing fitness (ln) (37 °C): -1.64 ± 0.19

GACCAGCAAUAUUACGCUUC
self-splicing fitness (ln) (30 °C): -2.01 ± 0.1
self-splicing fitness (ln) (37 °C): -1.66 ± 0.14

GUUAAGCAAUAUUACGGAAA
self-splicing fitness (ln) (30 °C): -1.77 ± 0.26
self-splicing fitness (ln) (37 °C): -1.06 ± 0.27

GUGUAGCAAUAUUACGUGCG
self-splicing fitness (ln) (30 °C): -1.8 ± 0.18
self-splicing fitness (ln) (37 °C): -0.374 ± 0.19

GACCAGCAAUAUUACGGUGU
self-splicing fitness (ln) (30 °C): -0.661 ± 0.055
self-splicing fitness (ln) (37 °C): -0.365 ± 0.084

GCGGAGCAAUAUUACGGCCU
self-splicing fitness (ln) (37 °C): 0.0586 ± 0.34

AUAUAGCAAUAUUACGGGUA
self-splicing fitness (ln) (30 °C): -2.09 ± 0.25
self-splicing fitness (ln) (37 °C): -0.788 ± 0.19

AAUCAGCAAUAUUACGAGGU
self-splicing fitness (ln) (30 °C): -2.3 ± 0.12
self-splicing fitness (ln) (37 °C): -1.36 ± 0.15

UCGAAGCAAUAUUACGUACU
self-splicing fitness (ln) (30 °C): -2.88 ± 0.1
self-splicing fitness (ln) (37 °C): -1.67 ± 0.12

AAGUAGCAAUAUUACGUGCG
self-splicing fitness (ln) (30 °C): -1.48 ± 0.12
self-splicing fitness (ln) (37 °C): -0.495 ± 0.15

GAGCAGCAAUAUUACGCUAA
self-splicing fitness (ln) (30 °C): -1.3 ± 0.15
self-splicing fitness (ln) (37 °C): -0.144 ± 0.18

AUCCAGCAAUAUUACGCCCG
self-splicing fitness (ln) (30 °C): -1.84 ± 0.38
self-splicing fitness (ln) (37 °C): -1.04 ± 0.37

GAUUAGCAAUAUUACGCACA
self-splicing fitness (ln) (30 °C): -0.341 ± 0.17
self-splicing fitness (ln) (37 °C): -0.721 ± 0.12

GGGUAGCAAUAUUACGUGAA
self-splicing fitness (ln) (30 °C): -1.36 ± 0.13
self-splicing fitness (ln) (37 °C): -0.147 ± 0.16

GGCUAGCAAUAUUACGGGAC
self-splicing fitness (ln) (30 °C): -3.59 ± 0.3
self-splicing fitness (ln) (37 °C): -0.762 ± 0.21

AAUGAGCAAUAUUACGGCCG
self-splicing fitness (ln) (30 °C): -2.12 ± 0.15
self-splicing fitness (ln) (37 °C): -1.36 ± 0.2

GAAAAGCAAUAUUACGGAGC
self-splicing fitness (ln) (30 °C): -2.46 ± 0.16
self-splicing fitness (ln) (37 °C): -0.743 ± 0.12

CUGGAGCAAUAUUACGAGGU
self-splicing fitness (ln) (30 °C): -3.48 ± 0.23
self-splicing fitness (ln) (37 °C): -2.11 ± 0.17

GACUAGCAAUAUUACGCCAC
self-splicing fitness (ln) (37 °C): -1.76 ± 0.41

CACAAGCAAUAUUACGCAAU
self-splicing fitness (ln) (30 °C): -3.31 ± 0.23
self-splicing fitness (ln) (37 °C): -3.31 ± 0.26

AAACAGCAAUAUUACGUGAC
self-splicing fitness (ln) (30 °C): -3.5 ± 0.14
self-splicing fitness (ln) (37 °C): -2.29 ± 0.13

CAAAAGCAAUAUUACGCUGG
self-splicing fitness (ln) (30 °C): -2.88 ± 0.19
self-splicing fitness (ln) (37 °C): -1.9 ± 0.17

AGGGAGCAAUAUUACGUUUA
self-splicing fitness (ln) (30 °C): -2.68 ± 0.33
self-splicing fitness (ln) (37 °C): -2.33 ± 0.31

GGAUAGCAAUAUUACGGUAC
self-splicing fitness (ln) (30 °C): -1.59 ± 0.14
self-splicing fitness (ln) (37 °C): 0.179 ± 0.13

CCGAAGCAAUAUUACGAUUA
self-splicing fitness (ln) (30 °C): -2.53 ± 0.14
self-splicing fitness (ln) (37 °C): -2.31 ± 0.2

AAACAGCAAUAUUACGUUGC
self-splicing fitness (ln) (30 °C): -3.24 ± 0.11
self-splicing fitness (ln) (37 °C): -3.26 ± 0.18

CUUGAGCAAUAUUACGCAUG
self-splicing fitness (ln) (30 °C): -2.7 ± 0.21
self-splicing fitness (ln) (37 °C): -1.3 ± 0.44

AAAGAGCAAUAUUACGUUCG
self-splicing fitness (ln) (30 °C): -1.54 ± 0.11
self-splicing fitness (ln) (37 °C): -0.974 ± 0.15

UAUUAGCAAUAUUACGUGGU
self-splicing fitness (ln) (30 °C): -2.57 ± 0.15
self-splicing fitness (ln) (37 °C): -2.69 ± 0.23

AUUGAGCAAUAUUACGUAUG
self-splicing fitness (ln) (30 °C): -3.63 ± 0.46

CCACAGCAAUAUUACGACCU
self-splicing fitness (ln) (30 °C): -3.94 ± 0.3
self-splicing fitness (ln) (37 °C): -2.82 ± 0.18

GGAAAGCAAUAUUACGGUAA
self-splicing fitness (ln) (30 °C): -1.62 ± 0.15
self-splicing fitness (ln) (37 °C): -0.544 ± 0.12

GACUAGCAAUAUUACGCUCG
self-splicing fitness (ln) (30 °C): -1.01 ± 0.14
self-splicing fitness (ln) (37 °C): -0.0622 ± 0.19

UCGCAGCAAUAUUACGACAC
self-splicing fitness (ln) (30 °C): -1.67 ± 0.26
self-splicing fitness (ln) (37 °C): -2.78 ± 0.41

GACCAGCAAUAUUACGACCU
self-splicing fitness (ln) (30 °C): 0.00245 ± 0.074
self-splicing fitness (ln) (37 °C): -0.389 ± 0.073
